Measured values reported in patent US20110312518A1.

Legend:
[1] = tested on: T1, Src peptide substrate KVEKIGEGTYGVVYK
T1 sequence: KVEKIGEGTYGVVYK

[2] = target: phospho-CrkL recombinant protein; experiment: sandwich immunoassay, microfluidic chip, 1 hour: Y244 capture, phospho-CrkL analyte, 4G10-coated beads counted
[3] = target: phospho-CrkL recombinant protein; experiment: sandwich immunoassay, 96-well plate, 12 hours: Y244 capture, phospho-CrkL analyte, 4G10 and FITC anti-mouse detection

Substance	detection limit (kinase activity, beads bound/counted) [1]	Current limit of detection [2]	Current limit of detection [3]
Src kinase	resulting in a detection limit of 100 fM	–	–
rabbit anti-CrkL monoclonal antibodies (clone Y244, Novus Biologicals #NB110-56895) (antibody)	–	100 pM	1 nM
